Tests used:
[1] = molecular target: E. coli F-ATPase subunit b (cysteine-free F-ATPase) (E. coli) (UniProt P0ABA0); test: cryo-EM structure; purified cysteine-free E. coli F-ATPase in digitonin at 3.58 μM, no nucleotides added; three rotational states at 6.9, 7.8 and 8.5 Å; models built by docking crystal, NMR and homology models, side chains pruned to Cα
[2] = molecular target: E. coli F-ATPase subunit c (cysteine-free F-ATPase) (E. coli) (UniProt P68699); test: as above

| Substance | stoichiometry N [1] | stoichiometry N [2] |
| --- | --- | --- |
| E. coli F-ATPase subunit b (cysteine-free F-ATPase) (from UniProt P0ABA0 2-156) (natural protein) | 2 | – |
| E. coli F-ATPase subunit c (cysteine-free F-ATPase) (from UniProt P68699 1-79) (natural protein) | – | 10 |
